Measured values taken from article PMC5551644.
Like-named read-outs stand apart in the source and are kept apart here. Values belong to the substance of their own block, whether it stands above or below them.

Experiments:
[1] = target: TGF-β2TM/TβRII binary complex (UniProt P37173); test: ITC
[2] = target: TGF-β2TM/TβRII binary complex (UniProt P37173); test: SEC
[3] = target: TGF-β2TM/TβRII binary complex (UniProt P37173); test: SEC-MALS
[4] = target: TGF-β2TM, variant of TGF-β2 bearing K25R, I92V, and K94R substitutions (human); test: SPR
[5] = target: Transforming growth factor β2 (TGF-β2), recombinant human (human) (UniProt P61812); test: ITC
[6] = target: TGF-β2TM, variant of TGF-β2 bearing K25R, I92V, and K94R substitutions (human); test: SPR; remark: listed apart in the source
[7] = target: Transforming growth factor β2 (TGF-β2), recombinant human (human) (UniProt P61812); test: SPR
[8] = target: Transforming growth factor β2 (TGF-β2), recombinant human (human) (UniProt P61812); test: SPR; remark: listed apart in the source

stoichiometry N (BGO per TGF-β2TM homodimer) [2]: 1
stoichiometry N (BGO per TGF-β2TM homodimer) [3]: 1
Kd [4]: 98 nM
Substance: betaglycan orphan domain (BGO), produced in E. coli (from UniProt P26342 24-384) (domain or fragment)

Kd [7]: 450 nM
Kd [4]: 325 nM
apparent KD with 2 μM TβRII [8]: 600 nM
Substance: C-terminal portion of the betaglycan zona pellucida domain (BG_(ZP-C)) (from UniProt P26342 589-761) (domain or fragment)

More lines, now with the values behind:

Substance: betaglycan orphan domain (BGO), produced in HEK-293 expi cells (from UniProt P26342 24-383) (domain or fragment)
Kd [1]: 82 nM
dH [1]: -38.8 kJ mol^–1
stoichiometry N [1]: 1.07 sites

Substance: full-length betaglycan extracellular domain (BG_(O-ZP)) (from UniProt P26342 24-761) (domain or fragment)
stoichiometry N (BG (O-ZP) per TGF-β2TM homodimer) [2]: 1
stoichiometry N (BG (O-ZP) per TGF-β2TM homodimer) [3]: 1
Kd [4]: 5.5 nM
Kd [5]: 109 nM
dH [5]: -52.6 kJ mol^–1
stoichiometry N [5]: 1.04 sites

Substance: betaglycan zona pellucida domain (BGZP) (from UniProt P26342 450-761) (domain or fragment)
Kd [6]: 290 nM
Kd [7]: 450 nM
Kd [4]: 287 nM
apparent KD with 4 μM TβRII [8]: 600 nM
